This note sets out measurements from US20240002499A1 (UNIVERSITA DEGLI STUDI DI MILANO, published 2024).

In assay [1] the target is T1, human CLIC1 protein located on the plasma membrane (tmCLIC1) (human, UniProt O00299 2-241). The assay is described as follows: not specified (same experimental models as tmCLIC1omab).
Assay [2] concerns the target T1, human CLIC1 protein located on the …. The experiment in a line: cell-based or functional assay.
Assay [3] addresses CLIC1 protein of microglial cells (BV-2), transmembrane form after stimulation (mouse, UniProt Q9Z1Q5 2-241). The assay is described as follows: cell-based or functional assay.
A further assay concerns the target T2, QVELFV sequence (human).
T2 peptide: QVELFV
The assay is described as follows: PEPperMAP linear peptide microarray. As to the method:
(§1) PEPperMAP epitope Mapping® of the tmCLIC1omab antibody was conducted against the peptide […] (amino acids 3-24 of the CLIC1 protein) translated to linear peptides consisting of 5, 10 and 15 amino acids with peptide-peptide overlaps of 4, 9 and 14 amino acids for high-resolution epitope data. The resulting CLIC1 peptide microarrays were incubated with the antibody samples at concentrations of 1 μg/ml, 10 μg/ml, 100 μg/ml and 250 μg/ml in incubation buffer, followed by staining with secondary and control antibodies and reading with a LI-COR Odyssey Imaging System. The intensity of the points and peptide annotation were quantified with the PepSlide® Analyzer.
(§2) Conversely, incubation of a second copy of the microarray of CLIC1 peptides with the tmCLIC1omab monoclonal antibody gave an antibody response with the epitopes formed by peptides adjacent to the VELF consensus motif (SEQ ID NO:22), with all peptide lengths having low or moderate signal-to-noise ratios. Additional very weak interactions of the antibody with the HA control peptides were observed, perhaps because of a cross-reaction or a less specific antibody bond. With the peptides consisting of 10 and […], longer […] (10 aa) (SEQ ID NO:23) and […] (15 aa) (SEQ ID NO:24) consensus motifs were observed, the underlined letters of which form part of linker […] (SEQ ID NO:25) specific to the microarray.

A further assay has as its target T3, QVELF sequence (human).
T3 peptide: QVELF
The assay is described as follows: PEPperMAP linear peptide microarray. As to the method: as §1, §2

B1: class IgG2b antibody containing the heavy chain variable region SEQ ID NO:15 and the light chain variable region SEQ ID NO:16 (antibody, V domains shown)
VH: EVKLVESGGGLVKPGGSLKLSCAASGFTFSGYVMSWVRQTPDKRLEWVASISSGGSSYYSDRVKGRLTISRDNARNILFLQMSSLRSEDSAMYYCANGYNYAMDYWGQGTSVTVSS
VL: DIVMTQSHKFMSISVGDRVSITCKASQDVGTAVAWYQQKPGQSPQLLIYWASTWHTGVPDRFTGSGSGTDFTLTITNVQSEDLADYFCQQYKLFPLTFGAGTRLELK
notes: IgG2b
Regarding B1, the binding result in assay [1] is “binds”.

B2: tmCLIC1omab (antibody, IgG1, V domains shown)
VH: EVMLVESGGGLVKPGGSLKLSCAASGFAFSNYAMSWIRQIPEKRLEWVATISTGGSSTFYPDSVKGRFTISRDNAKNTLYLQMSSLRSEDTAMYYCTRHAYEAWFAYWGQGTLVTVSA
VL: QIVLTQSPALMSASPGEKVTMTCSASSSVSYMYWYQQRPRSSPKPWIYLTSTLASGVPTRFSGSGSGTSYSLTISSMEAEDAATYYCQQWNSHPLTFGSGTKLEIK
notes: IgG1 class monoclonal antibody from mouse hybridoma; also called tmCLIComab; anti-tmCLIC1 monoclonal antibody
With B2, the “ROS production over time in human glioblastoma cells (fluorescence)” value in assay [2] was about 5 fold. Further, the “membrane current, patch-clamp in whole-cell configuration on BV2 microglial cells after β-amyloid” value in assay [3] was about 4 fold. Also, the binding result in the assay with QVELFV sequence and with QVELF sequence was “binds” throughout.
